According to the RNAGym collection of RNA variant scans (doi:10.7554/elife.80360):

B1: Hairpin Ribozyme (parent)
chain: GUCCUCUUUCACGUGCGCGUGAAAGAGAGAAGUGAACCAGAGAAACACACGUUGUGGUAUAUUACCUGGUA

Variants of: B1
Test: self-cleavage, relative activity (ratio to wild type); higher = more cleavage; co-transcriptional

Row | Variant | self-cleavage
1 | U2A A61C | 0.0595
2 | G1A C18U | 0.256
3 | G1A C16G | 0.169
4 | G1C G21A | 0.109
5 | G1C G21U | 0.274
6 | G1U G19A | 0.208
7 | G1C A23C | 0.103
8 | G1C A23U | 0.197
9 | G1A C10A | 0.175
10 | U2A C66A | 0.124
11 | U2C G54U | 0.193
12 | U2C C66U | 0.0916
13 | G1U A71C | 0.273
14 | G1C G57C | 0.118
15 | G1C G57A | 0.134
16 | G1A | 0.185
17 | G1U | 0.13
18 | G1C | 0.203
19 | G1A G34C | 0.09
20 | G1A G34U | 0.189
21 | G1C U14C | 0
22 | G1C U14A | 0.046
23 | G1C C6G | 0.249
24 | G1C C6U | 0.249

Row | Variant | self-cleavage
25 | G1C G34U | 0.344
26 | G1U G17U | 0.162
27 | U2A G25U | 0.204
28 | U2C G57U | 0.131
29 | U2A A31C | 0.13
30 | G1C C3A | 0.257
31 | U2A C46U | 0.0639
32 | G1U A24U | 0.117
33 | G1A C46G | 0.104
34 | G1A U63C | 0.166
35 | U2C C50A | 0.0705
36 | U2C C50G | 0.144
37 | U2A U70C | 0.288
38 | U2A A44U | 0.0374
39 | U2A A44C | 0.0634
40 | G1C G32A | 0.198
41 | U2A A30U | 0.0131
42 | G1U G54C | 0.176
43 | U2C A47G | 0
44 | U2C A47U | 0.203
45 | U2A C65U | 0.128
46 | U2A G15U | 0.289
47 | G1A U33G | 0.119
48 | U2A U63C | 0.0787

Row | Variant | self-cleavage
49 | U2A U63A | 0.0695
50 | G1U U5A | 0.163
51 | G1C A30G | 0.322
52 | U2A U55G | 0.109
53 | U2C A61U | 0.0427
54 | G1C U2G | 0.306
55 | G1C U2A | 0.251
56 | G1A C12G | 0.263
57 | G1A C12A | 0.131
58 | U2C C37G | 0.0267
59 | G1U A22C | 0.146
60 | U2C G42U | 0.203
61 | U2A A43U | 0.0943
62 | U2A G51A | 0.233
63 | U2A G51C | 0.125
64 | G1A C4A | 0.248
65 | G1A C4G | 0.149
66 | U2A U9A | 0.201
67 | G1C G13A | 0.0408
68 | G1C G13C | 0.179
69 | G1C G13U | 0.225
70 | U2C G19A | 0.149
71 | U2C G19C | 0.128
72 | G1A A49G | 0.233

Row | Variant | self-cleavage
73 | G1C G27A | 0.16
74 | U2C A35C | 0.159
75 | G1C U7G | 0.258
76 | U2C G40A | 0.192
77 | U2C G40C | 0.0737
78 | G1U G21A | 0.129
79 | G1C C37U | 0.177
80 | U2A C12G | 0.175
81 | U2A C12A | 0.171
82 | U2A C12U | 0.166
83 | G1U A39G | 0.121
84 | G1A G68C | 0.181
85 | G1U U8G | 0.0482
86 | G1U U8A | 0.144
87 | U2C C65U | 0.162
88 | U2C C65G | 0.0439
89 | U2C G27A | 0.129
90 | U2C G27U | 0.0539
91 | G1C A59U | 0.114
92 | G1C A59G | 0.0434
93 | U2C C16G | 0.246
94 | G1A U5C | 0.269
95 | G1C U53A | 0.2
96 | G1U G34U | 0.19

Row | Variant | self-cleavage
97 | G1U G34A | 0.143
98 | U2A A24G | 0.286
99 | U2A A24U | 0.29
100 | U2A G32U | 0.155
101 | G1C C46G | 0.307
102 | G1C C46U | 0.0993
103 | G1C C46A | 0.208
104 | G1A A35G | 0.16
105 | G1A A35C | 0.109
106 | G1U G69A | 0.0764
107 | U2C G34A | 0.217
108 | U2A G40C | 0.12
109 | U2A G40A | 0.0928
110 | G1C G56C | 0.202
111 | G1C G56A | 0.0459
112 | G1C A44C | 0.125
113 | U2A A26G | 0.321
114 | G1U U60G | 0.259
115 | G1C A41G | 0.129
116 | G1U G56U | 0.0984
117 | G1U A36G | 0.184
118 | G1U U14C | 0.128
119 | G1U U14A | 0.041
120 | G1U U7G | 0.088

Row | Variant | self-cleavage
121 | G1U U7A | 0.131
122 | G1A C6A | 0.197
123 | U2A U5G | 0.166
124 | U2A A28G | 0.434
125 | G1U U9G | 0.224
126 | G1U U9C | 0.0677
127 | G1A G42U | 0.0643
128 | G1A C66G | 0.225
129 | G1C C50A | 0.147
130 | G1C C50U | 0.321
131 | G1U C65U | 0.0631
132 | G1U C65G | 0.236
133 | G1U C16A | 0.111
134 | U2A U20A | 0.198
135 | U2A U20C | 0.336
136 | G1U U55A | 0.224
137 | G1U U55G | 0.104
138 | G1U U20A | 0.1
139 | G1C C38U | 0.198
140 | G1C U67C | 0.119
141 | U2A G34U | 0.665
142 | U2A U7A | 0.331
143 | U2A G69C | 0.111
144 | G1C C16G | 0.238

Row | Variant | self-cleavage
145 | U2C G56A | 0.177
146 | G1U C10G | 0.231
147 | G1C G25A | 0.154
148 | G1C G25C | 0.159
149 | G1U U62A | 0.147
150 | U2A C38A | 0.115
151 | U2A C38G | 0.121
152 | G1A A28C | 0.175
153 | G1A A23U | 0.163
154 | G1A U52G | 0.0884
155 | G1U U67A | 0.105
156 | G1C U63G | 0.0496
157 | G1C G51U | 0.181
158 | G1C G51C | 0.0946
159 | G1U A28U | 0.198
160 | G1C A22G | 0.255
161 | U2C C6U | 0.245
162 | U2C C6A | 0.0756
163 | U2C C6G | 0.0983
164 | G1U A41G | 0.0954
165 | G1U A59G | 0.216
166 | U2C A30C | 0.185
167 | U2C A30U | 0.0598
